Measurements taken from the supplement of paper PMC6757056.
± gives the standard deviation of the averaged measurements.

B1: library; a variant is named by its letters at N, in order (parent)
chain: GCUGUCACCGGUGCUUGGUACGUUAUAUUCAGCCGGUCUGAUGAGUCUNNNNNNAGACGAAACAGC

Columns and labels:
[1] = variants of: B1; assay: normalized RNA/DNA level without ligand (relative to sTRSVctl = 100) (log10 (% of sTRSVctl)); HEK293T overexpressing SLC46A1; higher = less ribozyme self-cleavage, higher mRNA level; settings: without (6R,S)-folinic acid; ligand present: no
Summary of the method: (§1)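 For each 6-well well, 4 µg of library plasmid encoding mCherry-linked ribozyme switches, or eGFP-linked ones in some ligand experiments, was transfected into HEK293T. Any ligand was added 1 h before transfection, and RNA was extracted with EDTA 72 h after it, then reverse-transcribed, amplified, barcoded and sequenced. RNA level was obtained by dividing RNA reads by DNA reads, normalizing to a spiked-in non-cleaving sequence or to the top sequences, then scaling and log-transforming. The top set was 25 sequences, scaling was ×100 with log10, and ≥100 DNA reads were required.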

[2] = variants of: B1; assay: normalized RNA/DNA level with ligand (relative to sTRSVctl = 100) (log10 (% of sTRSVctl)); HEK293T overexpressing SLC46A1; ligand concentration (+) RNA-Seq: 6 mM; higher = less ribozyme self-cleavage, higher mRNA level; settings: with (6R,S)-folinic acid; ligand present: yes
Summary of the method: as §1

Variant | normalized RNA/DNA level without ligand (log10) [1] | normalized RNA/DNA level with ligand (log10) [2]
CCCGAG | 1.95 ± 0.0086 | 1.99 ± 0.022
CCCGAU | 2.002 ± 0.016 | 2.017 ± 0.0026
CCCGAA | 2.029 ± 0.0067 | 2.02 ± 0.056
CCCGAC | 2.043 ± 0.016 | 2.05 ± 0.033
CCCACU | 2.103 ± 0.016 | 2.08 ± 0.062
CCCACC | 2.022 ± 0.0044 | 1.99 ± 0.021
CCCACG | 2.014 ± 0.0016 | 2.03 ± 0.021
CCCACA | 2.05 ± 0.027 | 2 ± 0.034
ACCUGC | 2.07 ± 0.016 | 2.04 ± 0.044
ACCUGG | 1.9783 ± 0.00064 | 2.04 ± 0.034
ACCUGU | 2.01 ± 0.025 | 2 ± 0.024
ACCUGA | 1.999 ± 0.003 | 2.03 ± 0.029
UCCGUA | 1.96 ± 0.029 | 2.004 ± 0.0049
UCCGUU | 2.049 ± 0.0025 | 2.05 ± 0.068
UCCGUC | 2.1142 ± 0.002 | 2.0759 ± 0.0012
UCCGGC | 2.08 ± 0.024 | 2.024 ± 0.018
UCCGGA | 1.99 ± 0.038 | 2.02 ± 0.063
UCCGGU | 2.032 ± 0.019 | 2.02 ± 0.052
ACAUUU | 2 ± 0.024 | 2.019 ± 0.018

Variant | normalized RNA/DNA level without ligand (log10) [1] | normalized RNA/DNA level with ligand (log10) [2]
ACAUUG | 1.94 ± 0.032 | 2.024 ± 0.011
UCCCUU | 2.03 ± 0.026 | 2.006 ± 0.0086
UCCCUA | 2.007 ± 0.0055 | 2 ± 0.024
UCCCUC | 2.07 ± 0.041 | 2.053 ± 0.0051
UCCCUG | 1.919 ± 0.013 | 2.03 ± 0.039
ACCCUU | 2.02 ± 0.027 | 2.03 ± 0.044
ACCCUA | 2.018 ± 0.015 | 2.03 ± 0.022
ACCCUC | 2.03 ± 0.031 | 2.02 ± 0.032
ACCCUG | 2.006 ± 0.013 | 2.032 ± 0.013
CCCAAC | 2.042 ± 0.017 | 2.019 ± 0.017
CCCAAG | 1.935 ± 0.014 | 1.99 ± 0.031
CCCAAA | 2.02 ± 0.025 | 2.026 ± 0.0099
CCCAAU | 2.023 ± 0.015 | 2.03 ± 0.028
UCCGCA | 2.01 ± 0.03 | 2.01 ± 0.063
UCCGCC | 2.03 ± 0.021 | 2.0083 ± 0.00058
UCCGCU | 2.068 ± 0.01 | 2.042 ± 0.015
ACCUCC | 2.08 ± 0.0086 | 2.01 ± 0.028
ACCUCU | 2.019 ± 0.0056 | 2.014 ± 0.015
ACCUCA | 2.047 ± 0.0058 | 2.07 ± 0.049

Variant | normalized RNA/DNA level without ligand (log10) [1] | normalized RNA/DNA level with ligand (log10) [2]
ACCUCG | 2.028 ± 0.0069 | 2.074 ± 0.0045
GCCUCC | 2.068 ± 0.0082 | 2.05 ± 0.033
GCCUCG | 2.034 ± 0.016 | 2.04 ± 0.046
GCCUCU | 2.0468 ± 0.0011 | 2.07 ± 0.027
GCCUCA | 2.041 ± 0.02 | 2.05 ± 0.044
GCCGAU | 2.015 ± 0.007 | 2.05 ± 0.03
GCCGAC | 1.982 ± 0.0078 | 2.04 ± 0.029
CCCCAC | 2.04 ± 0.022 | 2.05 ± 0.037
CCCCAA | 2.0237 ± 0.0015 | 1.999 ± 0.0078
CCCCAG | 2.004 ± 0.019 | 2.038 ± 0.012
CCCCAU | 2.031 ± 0.01 | 2.03 ± 0.045
ACCUAC | 2.0248 ± 0.0018 | 2.02 ± 0.028
ACCUAA | 2.021 ± 0.013 | 1.994 ± 0.018
CCCCCG | 2.05 ± 0.023 | 2 ± 0.0065
CCCCCC | 2.0694 ± 0.0015 | 2.02 ± 0.063
CCCCCA | 2.023 ± 0.004 | 1.99 ± 0.047
CCCCCU | 2.063 ± 0.017 | 2.01 ± 0.037
UCCAGU | 1.94 ± 0.029 | 1.99 ± 0.029
UCCAGC | 2.035 ± 0.016 | 2.03 ± 0.022
